Assay results reported in article PMC11481913, “Rational design of a flavoenzyme for aerobic nicotine catabolism” (mBio, 2024).

Each substance was assayed on CNCCCC(=O)c1cccnc1 (assay: purified protein). Conditions: Tris-HCl pH 8.0, 30 C, O2 as acceptor.
Assay type: biochemical, Pseudomonas putida
Pnao (Pseudomonas putida S16) gave a Km of 32 ± 1 µM, a kcat of 197 ± 1 s⁻¹ and a kcat/Km of 6.1e+06 M⁻¹ s⁻¹.
Substance Pnao (Pseudomonas putida S16; F388A) has a Km of 54 ± 1 µM, a kcat of 0.75 ± 0.01 s⁻¹ and a kcat/Km of 14000 M⁻¹ s⁻¹.
“Pnao (Pseudomonas putida S16; N224G/W220Y)” showed a Km of 150 ± 0 µM, a kcat of 135 ± 2 s⁻¹ and a kcat/Km of 910000 M⁻¹ s⁻¹.
In the case of “Pnao (Pseudomonas putida S16; N224I/W220Y)”, the Km is reported as 570 ± 50 µM, the kcat is reported as 383 ± 19 s⁻¹ and the kcat/Km is reported as 680000 M⁻¹ s⁻¹.
Work on Pnao (Pseudomonas putida S16; R96A) yielded a Km of 56 ± 1 µM, a kcat of 0.75 ± 0.06 s⁻¹ and a kcat/Km of 13000 M⁻¹ s⁻¹.
“Pnao (Pseudomonas putida S16; R96A/S461A)” was tested, and the Km was 83 ± 12 µM, the kcat was 0.39 ± 0.01 s⁻¹ and the kcat/Km was 4700 M⁻¹ s⁻¹.
